Test results: US20220411495A1, “POSITIVE ALLOSTERIC MODULATORS OF THE CALCIUM-SENSING RECEPTOR” (VIB VZW, priority 2019, published 2022)

T1: human CaSR wild type (hCaSR WT) (Homo sapiens, UniProt P41180, E1011Q)
T1 construct: mGlu5 signal peptide (N, cleaved yes); expressed in transfected cells
T1 sequence (P41180 20-1078 E1011Q): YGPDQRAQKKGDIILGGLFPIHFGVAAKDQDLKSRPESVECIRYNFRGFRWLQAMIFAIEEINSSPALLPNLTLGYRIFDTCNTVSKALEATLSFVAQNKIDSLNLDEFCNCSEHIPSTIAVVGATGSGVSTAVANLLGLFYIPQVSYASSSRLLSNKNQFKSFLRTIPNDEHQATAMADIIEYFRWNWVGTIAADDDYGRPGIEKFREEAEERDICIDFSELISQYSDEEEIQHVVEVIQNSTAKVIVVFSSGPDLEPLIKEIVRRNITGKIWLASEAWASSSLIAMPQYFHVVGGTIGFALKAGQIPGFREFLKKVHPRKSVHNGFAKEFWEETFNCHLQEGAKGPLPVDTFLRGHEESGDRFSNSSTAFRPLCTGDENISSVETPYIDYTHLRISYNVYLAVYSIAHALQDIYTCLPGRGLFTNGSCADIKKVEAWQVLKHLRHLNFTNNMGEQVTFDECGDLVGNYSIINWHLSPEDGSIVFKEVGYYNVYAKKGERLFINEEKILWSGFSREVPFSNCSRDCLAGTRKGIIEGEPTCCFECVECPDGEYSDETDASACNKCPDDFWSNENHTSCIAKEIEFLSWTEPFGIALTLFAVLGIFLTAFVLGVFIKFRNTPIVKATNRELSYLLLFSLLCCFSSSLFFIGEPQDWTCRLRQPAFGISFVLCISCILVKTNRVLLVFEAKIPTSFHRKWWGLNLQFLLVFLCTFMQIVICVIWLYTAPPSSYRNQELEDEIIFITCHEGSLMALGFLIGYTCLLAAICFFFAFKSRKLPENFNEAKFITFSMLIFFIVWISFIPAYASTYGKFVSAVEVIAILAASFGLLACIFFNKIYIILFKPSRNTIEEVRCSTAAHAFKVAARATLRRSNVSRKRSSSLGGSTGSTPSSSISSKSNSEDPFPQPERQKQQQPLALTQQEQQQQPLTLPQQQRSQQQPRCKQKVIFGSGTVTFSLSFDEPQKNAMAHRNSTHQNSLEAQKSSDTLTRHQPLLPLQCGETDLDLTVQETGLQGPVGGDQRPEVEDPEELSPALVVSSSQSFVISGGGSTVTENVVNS


Target: T1, human CaSR wild type (hCaSR WT)
Test: IP1 accumulation assay, Flp-In HEK293 HA-hCaSR WT cells
Format: cell-based
Conditions: for Effect on Ca2+ concentration-response curve (IP1): increasing concentrations of PAM; for PAM activity in IP1 accumulation screen: fixed nanobody concentration 5 μM, 30 min pre-incubation
Method: Nanobodies were successfully purified by immobilized metal ion affinity chromatography (IMAC) and size exclusion chromatography (SEC) prior to pharmacological characterization (FIG. 1). Each nanobody was initially screened for Gq/11 activity in the Cisbio IP1 accumulation assay as this is the primary signaling pathway of CaSR (Chavez-Abiega et al., 2020). Whole HEK293 HA-hCaSR WT cells were pre-incubated for 30 minutes at 37° C. with a fixed nanobody concentration (5 μM) prior to stimulation with the endogenous ligand Ca^2+. The well characterized positive allosteric modulator (PAM) chemical NPS R-568 and negative allosteric modulator (NAM) chemical NPS 2143 were added as reference compounds. […] No nanobodies with agonist or NAM activity were observed when all nanobodies screened in the absence or in the presence of EC80 Ca^2+, respectively (FIGS. 4A and 4B). […] Except for CaSR Nb5, the same nanobodies acted as PAMs when ERK1/2 phosphorylation was measured in the presence of EC20 Ca^2+ (FIG. 2B). Again, none of the nanobodies elicited an agonist or NAM response (FIGS. 5B and 5C).
All cell lines utilized in this study were grown at 37° C. and 5% CO2. The HEK293A (RRID: CVCL_6910) and stable Flp-In HEK293 cells were cultured in Dulbecco's Modified Eagle Medium (DMEM, #31966021) supplemented with 10% dialyzed Fetal Bovine Serum (dFBS) and 1% 10,000 units/mL penicillin and 10,000 μg/mL streptomycin mixture (pen/strep). The stable Flp-In CHO cells were cultured in F-12K medium (#21127022) supplemented with 10% dFBS and 1% pen/strep. Additionally, the stable Flp-In HEK293 and Flp-In CHO cell lines were cultured in the presence of respectively 200 and 500 μg/mL hygromycin B. For pharmacological characterization, Flp-In HEK293 HA-hCaSR WT cells were seeded in poly-D-lysine-coated clear 96 well tissue culture plates (Corning, Corning, N.Y., USA) at a density of 50,000 cells/well 18 h prior to assay. Experiments with HA-rCaSR WT and HA-hCaSR S170A required transient transfection of HEK293A cells 24 h prior to assay. DNA construct and Lipofectamine 2000 were diluted in Opti-MEM and mixed together after 5 minutes incubation at room temperature. For HA-rCaSR WT, 30 ng/well rCaSR DNA diluted in 25 μL/well Opti-MEM was mixed with 0.25 μL/well Lipofectamine 2000 in 25 μL/well Opti-MEM. For HA-hCaSR S170A, 40 ng/well […] DNA diluted in 25 μL/well Opti-MEM was mixed with 0.25 μL/well Lipofectamine 2000 in 25 μL/well Opti-MEM. The DNA:Lipofectamine 2000 mixtures were incubated 20 minutes at room temperature after which 50 μL/well was added to a poly-D-lysine-coated clear 96 well tissue culture plate. Next, 100 μL/well of a 400,000 cells/mL HEK293A cell solution prepared in culture media was added and the plate was placed at 37° C. and 5% CO2 (final cell density 40,000 cells/well).
Inositol monophosphate (IP1) accumulation was measured using the commercially available HTRF® IP1 accumulation kit (Cisbio Bioassays, Codolet, France) and an EnVision multimode plate reader (PerkinElmer, Waltham, Mass., USA). Unless stated otherwise, the cells were washed once with 100 μL/well assay buffer and stimulated for 30 minutes at 37° C. with 50 μL/well ligand(s) diluted in assay buffer supplemented with 20 mM LiCl. Following stimulation, the cells were washed once with 100 μL/well and lysed for 30 minutes at room temperature with 30 μL/well lysis buffer provided with the kit. The lysed cells were diluted 1:2 with assay buffer after which 10 μL/well was pipetted to a white 384-well OptiPlate (PerkinElmer, Waltham, Mass., USA). Next, 10 μL of a detection solution consisting of 2.5% IP1-d2 conjugate and 2.5% anti-IP1 antibody diluted in assay buffer was added to each well. Fluorophore emissions were measured after the plate was stored in the dark for 1 h. The 615/665 nm emission ratios measured upon excitation at 340 nm were converted to IP1 concentrations with an IP1 standard curve according to the manufacturer's instructions.

[1] = IP1 accumulation at EC20 Ca2+, three independent experiments in triplicate

| Molecule | Effect on Ca2+ concentration-response curve (IP1) | Need for pre-incubation for PAM activity (IP1) (5 μM, with or without 30 minutes pre-incubation at 37° C., EC20 Ca2+) | IP1 accumulation in the absence of added Ca2+ (1:1 ratio, total 10 μM, alone = combined with inactive Nb7) | Max. response (fold over basal ± S.E.M.), human ortholog (IP1 accumulation at EC20 Ca2+) [fold over basal] | EC50 (IP1 accumulation at EC20 Ca2+, three independent experiments in triplicate, read-out: Potency (pEC50 ± S.E.M.), human ortholog (converted)) [nM] | Potency (pEC50 ± S.E.M.), human ortholog [1] | PAM activity in IP1 accumulation screen (EC20 Ca2+) |
| --- | --- | --- | --- | --- | --- | --- | --- |
| COc1cccc([C@@H](C)NCCCc2ccccc2Cl)c1 [NPS R-568, reference compound] | – | did not require pre-incubation | did not induce IP1 accumulation | 3.89 ± 0.07 | 120 | – | – |
| Nb2: llama-derived CaSR-specific nanobody acting as PAM, SEQ ID NO:9 (protein, CaSR Nb2) VHH: QVQLVESGGGLVQAGSSLRLSCAASGRTFSNYRMAWFRQAPGKEREFVAVISRGGGGADYADSVKGRFTISRDNVKNTVSLQMNSLKPEDTAVYFCAARISGFSYYTSVDRYDYWGQGTQVTVSS | – | – | – | 3.52 ± 0.21 | – | 6.71 ± 0.08 | potentiated IP1 accumulation |
| Nb10: llama-derived CaSR-specific nanobody acting as PAM, SEQ ID NO:3 (protein, CaSR Nb10) VHH: QVQLVESGGGLVQPGDSLRVSCAASGGSFRSYAMAWFRQAPGKEREFVAAMSGTYGSTIYSDSMKGRFTISRDNAKKMVYLRMNSLRPEDTAVYYCAGYYSGAYYGTPKTDYTEYDSWGQGTQVTVSS | – | – | – | 3.36 ± 0.09 | – | 6.33 ± 0.03 | potentiated IP1 accumulation |
| Nb5: llama-derived CaSR-specific nanobody, weakest PAM, SEQ ID NO:8 (protein, CaSR Nb5) VHH: QVQLVESGGRLVQDGGSLRLSCAASGLTFSDYSMGWFRQVPGKEREFVAVIRRSNDSTYYADFVKGRFTISRDNAKNTVYLQMNSLQPEDTAVYSCAADRGGVGLTSAQTYAYWGQGTQVTVSS | – | – | – | 1.88 ± 0.05 | – | – | potentiated IP1 accumulation |
| Nb4: llama-derived CaSR-specific nanobody acting as PAM, SEQ ID NO:5 (protein, CaSR Nb4) VHH: QVQLVESGGGLVQAGGSLRLSCAASGRTFSTYRMGWFRQGLGKEREFVAAITANGVRTFYTDSVKGRFTISRDNAKNTLYLQMNSLQPDDTAVYLCAARRKGIFTVQQAQDITDWDYWGQGTQVTVSS | leftward shift | – | – | 3.74 ± 0.08 | – | 7.08 ± 0.13 | potentiated IP1 accumulation |

The remaining lines, values ahead:

| Effect on Ca2+ concentration-response curve (IP1) | Need for pre-incubation for PAM activity (IP1) (5 μM, with or without 30 minutes pre-incubation at 37° C., EC20 Ca2+) | IP1 accumulation in the absence of added Ca2+ (1:1 ratio, total 10 μM, alone = combined with inactive Nb7) | Max. response (fold over basal ± S.E.M.), human ortholog (IP1 accumulation at EC20 Ca2+) [fold over basal] | EC50 (IP1 accumulation at EC20 Ca2+, three independent experiments in triplicate, read-out: Potency (pEC50 ± S.E.M.), human ortholog (converted)) [nM] | Potency (pEC50 ± S.E.M.), human ortholog [1] | PAM activity in IP1 accumulation screen (EC20 Ca2+) | Molecule |
| --- | --- | --- | --- | --- | --- | --- | --- |
| leftward shift | – | – | – | – | – | – | C[C@@H](NCCCc1cccc(C(F)(F)F)c1)c1cccc2ccccc12 [cinacalcet, reference compound] |
| – | – | – | 3.50 ± 0.17 | – | 6.28 ± 0.07 | potentiated IP1 accumulation | Nb11: llama-derived CaSR-specific nanobody acting as PAM, SEQ ID NO:6 (protein, CaSR Nb11) VHH: QVQLVESGGGLVQAGGSLRLSCAASGRTFSTYRMGWFRQGPGKEREFVAAITATGVKTYYTDSVKGRFTISRDNAKNTVYLQMNSVQPEDTAVYSCAARIKAIFTAQQAATITDYDYWGQGTQVTVSS |
| – | – | – | 4.04 ± 0.32 | – | 6.22 ± 0.05 | potentiated IP1 accumulation | Nb37: llama-derived CaSR-specific nanobody acting as PAM, SEQ ID NO:4 (protein, CaSR Nb37) VHH: QVQLVESGGGLVQPGDSLRVSCAASGGSFRSYAMAWFRRAPGKEREFVAAMSGTYGSTIYADSMKGRFTISRDNAKKMVYLRMNSLRAEDTAVYYCAGYYSGAYYGTPKTDYTEYDSWGQGTQVTVSS |
| – | – | – | 3.38 ± 0.36 | – | 6.59 ± 0.03 | potentiated IP1 accumulation | Nb15: llama-derived CaSR-specific nanobody acting as PAM, SEQ ID NO:10 (protein, CaSR Nb15) VHH: QVQLVESGGGLVQAGGSLRLSCAASGRTFNNYHMAWFRQAPGKEREFAAAISRRAGTTYYADSVKGRFTISRDNAKNTVYLQMNSLKPEDTAVYYCAADPDTYGVSYLARKYDYWGQGTQVTVSS |
| – | – | – | 4.78 ± 0.21 | – | 6.78 ± 0.17 | potentiated IP1 accumulation | Nb36: llama-derived CaSR-specific nanobody acting as PAM, SEQ ID NO:7 (protein, CaSR Nb36) VHH: QVQLVESGGGLVQAGESLRLSCAASGRTFSSYRMGWFRQGPGKEREFVAAITATGVRTYYADSVKGRFTISRDNAKNTVYLQMNSLQPDDTAVYLCAARRKAIFSVQQALTITDYDDWGQGTQVTVSS |
